From the DeepSol protein solubility set

Assay: soluble on expression in E. coli; label from the status in PepcDB or PDB records

Sequence | soluble on expression in E. coli
MAKWVYKFEEGNASMRNLLGGKGCNLAEMTILGMPIPQGFTVTTEACTEYYNSGKQITQEIQDQIFEAITWLEELNGKKFGDTEDPLLVSVRSGARASMPGMMDTILNLGLNDVAVEGFAKKTGNPRFAYDSYRRFIQMYSDVVMEVPKSHFEKIIDAMKEEKGVHFDTDLTADDLKELAEKFKAVYKEAMNGEEFPQEPKDQLMGAVKAVFRSWDNPEAIVYRRMNDIPGDWGTAVNVQTMVFGNKGETSGTGVAFTRNPDTGEKGIYGRYLINAQGEDVVAGVRTPQPITQLENDMPDCYKQFMDLAMKLEKHFRDMQDMEFTIEEGKLYFLQTRNGKRTAPAALQIACDLVDEGMITEEEAVVRIEAKSLDQLLHPTFNPAALKAGEVIGSALPASPGAAAGKVYFTADEAKAAHEKGERVILVRLETSPEDIEGMHAAEGILTVRGGMTSHAAVVARGMGTCCVSGCGEIKINEEAKTFELGGHTFAEGDYISLDGSTGKIYKGDIETQEASVSGSFERIMVWADKFRTLKVRTNADTPEDTLNAVKLGAEGIGLCRTEHMFFEADRIMKIRKMILSDSVEAREEALNELIPFQKGDFKAMYKALEGRPMTVRYLDPPLHEFVPHTEEEQAELAKNMGLTLAEVKAKVDELHEFNPMMGHRGCRLAVTYPEIAKMQTRAVMEAAIEVKEETGIDIVPEIMIPLVGEKKELKFVKDVVVEVAEQVKKEKGSDMQYHIGTMIEIPRAALTADAIAEEAEFFSFGTNDLTQMTFGFSRDDAGKFLDSYYKAKIYESDPFARLDQTGVGQLVEMAVKKGRQTRPGLKCGICGEHGGDPSSVEFCHKVGLNYVSCSPFRVPIARLAAAQAALNNK | soluble
MAHHHHHHMHRASRIAAAPFKSVLRRHKHHPEGLPLYNEMSKQWLCREGERWWILDAKGEQLPRVAAVAAQYITGQHRPDFTPGMISGDHVIIVNIKDVVMVGDEWIRVPITWQTAYPGGKYRIRLTDMYERDPCMLMWWFLKDEVNRHFVRKLKTRVAPLEKAWLYEDSVHPHGEKNPRPLCWSDPVVRGWKYTDPQFIRRWKPNEFIT | not soluble
MRLEIPNHTERFGVVRLHEVQRILELDSGRVRDESPAVGLRRLDDADLRDVLEQTAIVVPTRNERLKLLEGVLSGIPHEALILVASNSSPDRFQMERDLLEEFAHLTERPALIFHQKDPALAEALRAGGYPHPIGEDGLVRSGKAEGMILALVFAALSGRRYVGFIDADNYFPGAVWEYVRAYAAGFLMAKTPFAMVRILWRYKPKLTEDEGVVFRRYGRVSERNNRALNQLIGGVSGFETDVVKTANAGEHAMSLGLALRLPLASGYAVEPQELVSLLELYGGVFPLEDEEVLQHGVEIFQIETRNPALHENKGDEHIRDMLLACLATVYHSKLATEEVRQSVLEELQAAGALAPGEEPPPPVLYPPLSSLDLQAVRKALRGHFSRFRVP | soluble
MSLKKEVVVIGGGIVGLSCAYSMHKLGHKVCVIEKNDGANGTSFGNAGLISAFKKAPLSCPGVVLDTLKLMLKNQAPLKFHFGLNLKLYQWILKFVKSANAKSTHRTMALFERYGWLSIDMYHQMLKDGMDFWYKEDGLLMIYTLEESFEKKLKTCDNSGAYKILSAKETKEYMPVVNDNICGSVLLTENAHVDPGEVMHSLQEYLQNVGVEFLYNEEVIDFEFKNNLIEGVITHKEKIQAETIILATGANPTLIKKTKNDFLMMGAKGYSITFKMPEELKPKTSSLFADIFMAMTPRRDTVRITSKLELNTNNALIDKEQIANMKKNLAAFTQPFEMKDAIEWCGFRPLTPNDIPYLGYDKRYKNLIHATGLGWLGITFGPAIGKIIANLSQDGANEKNADIMLFSAFFRDEGHHHHHH | not soluble
MIFLSFKKSFKNITIEGKFTFEKGFNVILGPSGAGKSTVIKVMCGIEKPDEGFMKCCDEVFFDTKKGVFLPPQKRRLGVVFQSHNLFPHMTVRENIEFALKKAKEPQFTVEELLEKFNLKGHENKYPGELSGGQRQRVAVIRAIVFNPRAVLMDEPFSSLDFKTKLSIMEFIKSVHIEKPVIIVTHDLFEALYLGQKFFLMDNGKKVKEGGKEVLKEYVDLEKIKKFLS | soluble
MGSDKIHHHHHHMIEPVSEDTILITLAPAIDDTLPARIASLVDSIRRAGFHWLVDMVPSYTTLMVVYDPVLVDFRQVTDKLRPIVHRLSTQGHTAELKSRLVELPVYYSAETGPDLQWLATESGLDCEEVIRRHSSVEYRVHALGFAPGFAFMGQVDPSIAAPRKTTPRKQVPAGSVGIANRQTAVYPQVSPGGWQLIGRCPTRLFDSTNLSLLKVGDRVRFTPISREAFLAAGGELIS | not soluble
MKQLSGLLGELRQKLCAGFPEQAGIQQLIFPAPGLVGRQLLEWLTAQTHFPQFYWRHRDNHEEAAVCGQTRSFADMKDADDFIQQNPDANGLRIWGLNAFEPVMVFGQLTDNGLVSGKNAQASFLFLPRLEILRRGKKTSLTLNLSSETSLQKDALQAITFIDQLMAARALPVLNARIQHSSHTPGYPQWRNLIQQALNDIEQQKLDKVVLARTTTLTLNKPLSCAAFMAASRQVNHRCYHFMLRFDDRQAFLGSSPERLYLRQQLHLETEALAGTVSNLDSDPQAAVLADWLMHDEKNQRENLLVVDDICQRLQGGVTAVDVMPPEIIRLRKVQHLRRRICAQLSRASDTDCLQRLQPTAAVAGLPREAARQFIAKHELFSRGWYAGSAGYLSLKRTEFSVALRSARVDGQQIHLYAGAGIVAGSDAEQEWQEIDNKSAGLQSLLEHEAQPVKA | not soluble
MGSDKIHHHHHHMEHFLYRLNFSTALHIGKDAGGPSLDDGQMIIHADTLFAALCCEAVRGGRITQLVKYFADGILSISDALPYAGDEIFLPRPVLFTENRKRAGDSALAKALKNKDYIPLSFFGDYLKSMQQLDFNLESLKSESDFGYLTTLTRVAIKGNSPPLPYHVAAWRFADGCGLYIIVRSEQEEARTMFASLLAELGLSGIGGKQSSGWGKFEVKPGPVPDELLRLLEDKQAEYQMLMGTALPVDNELDTVLLNGWYKLLRRGGFIRSESYAARQMKKKTIYMLASGSCLRSRFKGAMLDLSDNGAHPVWRCGNTLFVGVTI | not soluble
MACLTDLVNLNLSDTTEKIIAEYIWIGGSGMDLRSKARTLPGPVTDPSKLPKWNYDGSSTGQAPGEDSEVILYPQAIFKDPFRRGNNILVMCDCYTPAGEPIPTNKRYSAAKIFSSPEVAAEEPWYGIEQEYTLLQKDTNWPLGWPIGGFPGPQGPYYCGIGAEKSFGRDIVDAHYKACLYAGINISGINGEVMPGQWEFQVGPSVGISSGDQVWVARYILERITEIAGVVVTFDPKPIPGDWNGAGAHTNYSTESMRKEGGYEVIKAAIEKLKLRHKEHIAAYGEGNERRLTGRHETADINTFSWGVANRGASVRVGRETEQNGKGYFEDRRPASNMDPYVVTSMIAETTIVWKP | soluble
MTVKIALLGFGTVASGVPFLLKENGGKINQSAHSDIKVAKVLVKDEDEKNRLLAAGNDFNFVTNVDDILSDQDITIVVELMGRIEPAKTFITRALEAGKHVVTANKDLLAVHGAELLEIAQANKVALYYEAAVAGGIPILRTLANSLASDKITRVLGVVNGTSNFMVTKMVEEGWSYDDALAEAQRLGFAESDPTNDVDGIDAAYKMVILSQFAFGMKIAFDDVAHKGIRNITPEDVAVAQELGYVVKLVGSIEETSSGIAAEVTPTFLPKAHPLASVNGVMNAVFVESIGIGESMYYGPGAGQKPTATSVVADIVRIVRRLNDGTIGKDFNEYSRDLVLANPEDVKANYYFSILALDSKGQVLKLAEIFNAQDISFKQILQDGKEGDKARVVIITHKINKAQLENVSAELKKVSEFDLLNTFKVLGE | soluble
MFQNHKIMDLEVRTRLDDNRNLREVRIIPLGSGYNVGIVYSKEISDISDLNPKRILGIDMGVRNIVTIGNNMSEEGIAVKGGVLRSINQYFNKELSKLKSVSDRQNDGKGNTRRIKNLYAVRNGKIKDIMHKLSRAIIRYALSMNVDTIVIGHSQGWKHTPDMGKKNNQNFVQIPFNILIEQIRYKGQEAGINVIVLDESYTSVCSFIDNESIEKHETYMGKRIKRGIFRSHKGILIHADLNALYNTIKKAISEAFADGIEGIGLYPRSLSIREMITSKGLRLEHHHHHH | soluble
TGSGELLLTSPKGSLTLFAYPGKPSLVTVSDFSAGLLDGTVAVNHMDYDLKSKHTETLVQLNGIPIQSLLDLQGASKLSATGTIRGAIPVVLDNNLFSIPEGRMDAEKNGLIIYASTPEERAAAGAGMRLTYEALGNFFYSELVSNIVMTPDGNSTISIQLKGRNPDFQNNRPVNLNLNIQQNLLDLFRSLTLSSDIEEAISKKVLENSGG | not soluble
MRNLSDRAKFESMINSPSKSVFVRNLNELEALAVRLGKSYRIQLDQAKEKWKVK | not soluble
ADYVLAIDQGTTSSRAIVFDHSGEIYSTGQLEHDQIFPRAGWVEHNPEQIWNNVREVVGLALTRGNLTHEDIAAVGITNQRETAVVWDKTTGKPVYNAIVWQDTRTQKIVDELGGDEGAEKYKSIVGLPLATYFSGPKIKWILDNVEGAREKAEKGDLLFGNTDTWVLWNMTGGTEGGVHVTDVTNASRTMLMDLDTLSWREDIAADMGIPLSMLPDIRSSSEVYGHGRPRGLVPGVPIAGILGDQQAATFGQACFEVGQAKNTYGTGNFLLLNTGTEKVMSKNGLLTTVCYKIGDAPAVYALEGSIAVTGSLVQWLRDNLGMFEDAPDVEWLAGKVQDNGGAYFVPAFSGLFAPYWRPDARGALVGLTRYVNRNHIARAALEATAFQSREVVDAMNADSGVDLTELRVDGGMVANELLMQFQADQLGVDVVRPKVAETTALGAAYAAGIAVGFWKGEQDVIDNWAEDKRWSPSMESGERERLYRNWKKAVTKTMEWVDEDVEQ | soluble
SLEIRRSDAPRLVDLVRRAQASVNRLATEREALTTRIDSVHGRSVDTALAAMQRRSAKLAGVAAMNPVHGPGLVVTLQDAQRDANGRFPRDASPDDLVVHQQDIEAVLNALWNAGAEAIQMQDQRIIAMSIARCVGNTLLLNGRTYSPPYTIAAIGDAAAMQAALAAAPLVTLYKQYVVRFGLGYCEEVHPDLQIVGYADPVRMHFAQPAGPLDY | soluble
MGSDKIHHHHHHMSLNQPPHTRLRHDNPRSPNTFPSRAKVVGAEDLATTSNASTGHGFNLARPVHRNREPATPAPRVVEGANRRRSACEQDISHRHEKIYNWAPAPNTRQGQPTRRLTSRSGPKEREHAARTPRTALQCQRVLALGRVRTCASCGRGSEVLLRGLCPECFDRRYGVVEGLPWELVVDVCTSCGRVRIGHKWLEYATAEEAVGLMLSSMSLKPVHPVERVELEDWALETRLDWRTRVRLRFRANYRDTLFRVSRVIVLRLNPSTCPLCIVRRSGEYDTLVQVRGYRAGEAVEKTLNSLDPREAPIDVVPVRGGVDVYFHHRGAAARFVSRLASTARVRVSRVEHEHVGTSSLGRRRSRKTILVRLEGLTGERGE | not soluble
AHHHHHHGSEYTIVDGEEYIEEIKKLDREISYSFVRFPISYEEYEERHEELFESLLSQGEHKFFVALNERSELLGHVWICITLDTVDYVKIAYIYDIEVVKWARGLGIGSALLRKAEEWAKERGAKKIVLRVEIDNPAVKWYEERGYKARALIMEKPI | soluble
RQTDFTRPDGSRSTVALLQGNIDQTLKWREDQVIPTIQKYYEQVGKTTADIVILPETAIPVMRQNLPENILAKFAEQAQNNGSALAVGISQYTSDGNGYENAVINLTGYQENNQDGIPYYAKNHLVPFGEYKPLPFLTTPLYKMMDMPLSDFRKGGGKQSALLMKNQKIAFNICYEDGFGDELIAAAKDATLLANASNMAWYGKSNAMYQHLQQSQARAMELGRYMVRATNTGATAIISPKGNIIAQAQPDTETVLEGHIKGYVGETPYMKTG | not soluble
MRIVTAAVMASTLAVSSLSHAAEVGSGDNWHPGEELTQRSTQSHMFDGISLTEHQRQQMRDLMQQARHEQPPVNVSELETMHRLVTAENFDENAVRAQAEKMANEQIARQVEMAKVRNQMYRLLTPEQQAVLNEKHQQRMEQLRDVTQWQKSSSLKLLSSSNSRSQMAGDPLEHHHHHH | not soluble
